Laboratory results: doi:10.1101/2023.11.26.568713v1

B1: BhcA (Paracoccus denitrificans PD1222) (protein)
chain: MTSQNPIFIPGPTNIPEEMRKAVDMPTIDHRSPVFGRMLHPALEGVKKVLKTTQAQVFLFPSTGTGGWETAITNTLSPGDKVLAARNGMFSHRWIDMCQRHGLDVTFVETPWGEGVPADRFEEILTADKGHEIRVVLATHNETATGVKSDIAAVRRALDAAKHPALLFVDGVSSIGSMDFRMDEWGVDIAVTGSQKGFMLPPGLAIVGFSPKAMEAVETARLPRTFFDIRDMATGYARNGYPYTPPVGLINGLNASCERILAEGLENVFARHHRIASGVRAAVDAWGLKLCAVRPELYSDSVSAIRVPEGFDANLIVSHALETYDMAFGTGLGQVAGKVFRIGHLGSLTDAMALSGIATAEMVMADLGLPIQLGSGVAAAQEHYRQTTAAAQKKAA
B2: GGT1 (Arabidopsis thaliana) (protein)
chain: MALKALDYDTLNENVKKCQYAVRGELYLRASELQKEGKKIIFTNVGNPHALGQKPLTFPRQVVALCQAPFLLDDPNVGMLFPADAIARAKHYLSLTSGGLGAYSDSRGLPGVRKEVAEFIQRRDGYPSDPELIFLTDGASKGVMQILNCVIRGNGDGILVPVPQYPLYSATISLLGGTLVPYYLDESENWGLDVANLRQSVAQARSQGITVRAMVIINPGNPTGQCLSEANIREILKFCYNEKLVLLGDEVYQQNIYQDERPFISSKKVLMEMGSPFSKEVQLVSFHTVSKGYWGECGQRGGYFEMTNLPPRVVEEIYKVASIALSPNVSAQIFMGLMVNPPKPGDISYDQFARESKGILESLRRRARLMTDGFNSCKNVVCNFTEGAMYSFPQIRLPTGALQAAKQAGKVPDVFYCLKLLEATGISTVPGSGFGQKEGVFHLRTTILPAEDEMPEIMDSFKKFNDEFMTQYDNNFGYSKM

Legend:
[1] = substrate: O=CC(=O)O; assay: purified protein, by the assay type; details: pH 7.6; 30.0 °C
[2] = substrate: O=CC(=O)O; assay: purified protein, by the assay type; details: pH 7.6; 30.0 °C; remark: listed apart in the source

Protein | Km [1] [µM] | Km [2] [µM]
B1 | 140 ± 20 | 190 ± 20
B2 | 330 ± 30 | 
